Measurements from article PMC9482650, “Quantitative fragmentomics allow affinity mapping of interactomes” (Nature Communications, 2022).

T1: APBA2_2, Q99767
T1 sequence (Q99767 654-744, limits assumed, looked up): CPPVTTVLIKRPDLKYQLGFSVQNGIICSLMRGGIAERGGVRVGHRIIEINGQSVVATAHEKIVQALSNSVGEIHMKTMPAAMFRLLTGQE

T2: ARHGAP21, Q5T5U3
T2 sequence (Q5T5U3 45-169, limits assumed, looked up): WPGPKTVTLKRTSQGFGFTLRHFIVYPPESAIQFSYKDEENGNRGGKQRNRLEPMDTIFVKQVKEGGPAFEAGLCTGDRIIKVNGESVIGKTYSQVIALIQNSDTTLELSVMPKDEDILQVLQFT

T3: HTRA4, P83105
T3 sequence (P83105 378-476, limits assumed, looked up): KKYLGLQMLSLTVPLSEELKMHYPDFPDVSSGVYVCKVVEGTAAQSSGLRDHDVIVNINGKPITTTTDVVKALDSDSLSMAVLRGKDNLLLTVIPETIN

T4: LIN7C, Q9NUP9
T4 sequence (Q9NUP9 88-185, limits assumed, looked up): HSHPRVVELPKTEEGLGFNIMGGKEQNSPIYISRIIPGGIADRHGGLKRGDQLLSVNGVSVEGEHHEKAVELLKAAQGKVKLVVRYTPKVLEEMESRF

T5: LNX2_2, Q8N448
T5 sequence (Q8N448 334-432, limits assumed, looked up): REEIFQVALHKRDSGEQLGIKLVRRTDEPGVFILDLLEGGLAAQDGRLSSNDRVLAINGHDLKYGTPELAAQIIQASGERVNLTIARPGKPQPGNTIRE

T6: PDZRN3_1, Q9UPQ7
T6 sequence (Q9UPQ7 244-349, limits assumed, looked up): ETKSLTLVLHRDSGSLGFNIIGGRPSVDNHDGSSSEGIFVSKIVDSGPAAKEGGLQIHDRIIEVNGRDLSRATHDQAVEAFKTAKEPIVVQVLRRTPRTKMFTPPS


What follows are binders tested against T1, APBA2_2, Q99767 (assay: holdup assay). Conditions: plain residues with an end cap or a label only (N-terminal biotin on a linker: ado-ado).
Design: key: below the threshold = too weak to quantify, mostly under pKd 3.1 to 4

Binder	pKd
ETSLVKGIDI [DENND5A, Q6IQ26]	below the threshold
NASRTRITFV [MCM7, P33993]	below the threshold

These binders were tested against T2, ARHGAP21, Q5T5U3 (assay: holdup assay). Conditions: plain residues with an end cap or a label only (N-terminal biotin on a linker: ado-ado).
Design: key: below the threshold = too weak to quantify, mostly under pKd 3.1 to 4

Binder	pKd
ETSLVKGIDI [DENND5A, Q6IQ26]	4.25
NASRTRITFV [MCM7, P33993]	below the threshold

The binders below were run against DLG1_2, Q12959 (assay: holdup assay). Conditions: plain residues with an end cap or a label only (N-terminal biotin on a linker: ado-ado).
Design: key: below the threshold = too weak to quantify, mostly under pKd 3.1 to 4

Chain of DLG1_2, Q12959 (Q12959 314-412): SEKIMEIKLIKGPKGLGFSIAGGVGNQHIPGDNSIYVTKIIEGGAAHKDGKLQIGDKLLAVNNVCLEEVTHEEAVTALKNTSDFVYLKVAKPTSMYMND

Binder	pKd
ETSLVKGIDI [DENND5A, Q6IQ26]	below the threshold
NASRTRITFV [MCM7, P33993]	5.28

The binders below were run against DLG2_3, Q15700 (assay: holdup assay). Conditions: plain residues with an end cap or a label only (N-terminal biotin on a linker: ado-ado).
Design: key: below the threshold = too weak to quantify, mostly under pKd 3.1 to 4

Binder	pKd
ETSLVKGIDI [DENND5A, Q6IQ26]	below the threshold
NASRTRITFV [MCM7, P33993]	4.58

These binders were tested against DLG4_1, P78352 (assay: holdup assay). Conditions: plain residues with an end cap or a label only (N-terminal biotin on a linker: ado-ado).
Design: key: below the threshold = too weak to quantify, mostly under pKd 3.1 to 4

Chain of DLG4_1, P78352 (P78352 62-152): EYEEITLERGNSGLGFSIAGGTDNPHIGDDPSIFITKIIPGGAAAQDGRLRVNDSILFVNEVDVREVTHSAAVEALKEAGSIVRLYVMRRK

Binder	pKd
ETSLVKGIDI [DENND5A, Q6IQ26]	below the threshold
NASRTRITFV [MCM7, P33993]	4.76

These binders were tested against DLG4_2, P78352 (assay: holdup assay). Conditions: plain residues with an end cap or a label only (N-terminal biotin on a linker: ado-ado).
Design: key: below the threshold = too weak to quantify, mostly under pKd 3.1 to 4

Chain of DLG4_2, P78352 (P78352 155-259): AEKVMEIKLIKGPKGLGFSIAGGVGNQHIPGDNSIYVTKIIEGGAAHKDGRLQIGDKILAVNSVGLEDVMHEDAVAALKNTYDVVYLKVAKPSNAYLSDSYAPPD

Binder	pKd
ETSLVKGIDI [DENND5A, Q6IQ26]	below the threshold
NASRTRITFV [MCM7, P33993]	5.12

Each binder was assayed against DLG4_3, P78352 (assay: holdup assay). Conditions: plain residues with an end cap or a label only (N-terminal biotin on a linker: ado-ado).
Design: key: below the threshold = too weak to quantify, mostly under pKd 3.1 to 4

Chain of DLG4_3, P78352 (P78352 306-403): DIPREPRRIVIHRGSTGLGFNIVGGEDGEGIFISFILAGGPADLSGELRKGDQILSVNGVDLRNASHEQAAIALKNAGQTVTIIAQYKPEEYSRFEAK

Binder	pKd
ETSLVKGIDI [DENND5A, Q6IQ26]	below the threshold
NASRTRITFV [MCM7, P33993]	4.33

The binders below were run against FRMPD3, Q5JV73 (assay: holdup assay). Conditions: plain residues with an end cap or a label only (N-terminal biotin on a linker: ado-ado).
Design: key: below the threshold = too weak to quantify, mostly under pKd 3.1 to 4

Chain of FRMPD3, Q5JV73 (Q5JV73 12-100): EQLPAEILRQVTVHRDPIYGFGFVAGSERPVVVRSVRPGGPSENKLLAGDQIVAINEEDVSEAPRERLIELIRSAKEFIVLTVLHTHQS

Binder	pKd
ETSLVKGIDI [DENND5A, Q6IQ26]	below the threshold
NASRTRITFV [MCM7, P33993]	below the threshold

What follows are binders tested against FRMPD4, Q14CM0 (assay: holdup assay). Conditions: plain residues with an end cap or a label only (N-terminal biotin on a linker: ado-ado).
Design: key: below the threshold = too weak to quantify, mostly under pKd 3.1 to 4

Chain of FRMPD4, Q14CM0 (Q14CM0 67-160): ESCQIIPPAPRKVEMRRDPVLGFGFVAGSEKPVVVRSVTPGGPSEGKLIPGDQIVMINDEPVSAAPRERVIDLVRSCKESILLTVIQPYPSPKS

Binder	pKd
ETSLVKGIDI [DENND5A, Q6IQ26]	below the threshold
NASRTRITFV [MCM7, P33993]	below the threshold

What follows are binders tested against GOPC, Q9HD26 (assay: holdup assay). Conditions: plain residues with an end cap or a label only (N-terminal biotin on a linker: ado-ado).
Design: key: below the threshold = too weak to quantify, mostly under pKd 3.1 to 4

Binder	pKd
ETSLVKGIDI [DENND5A, Q6IQ26]	below the threshold
NASRTRITFV [MCM7, P33993]	4.2

These binders were tested against GORASP1, Q9BQQ3 (assay: holdup assay). Conditions: plain residues with an end cap or a label only (N-terminal biotin on a linker: ado-ado).
Design: key: below the threshold = too weak to quantify, mostly under pKd 3.1 to 4

Chain of GORASP1, Q9BQQ3 (Q9BQQ3 1-208): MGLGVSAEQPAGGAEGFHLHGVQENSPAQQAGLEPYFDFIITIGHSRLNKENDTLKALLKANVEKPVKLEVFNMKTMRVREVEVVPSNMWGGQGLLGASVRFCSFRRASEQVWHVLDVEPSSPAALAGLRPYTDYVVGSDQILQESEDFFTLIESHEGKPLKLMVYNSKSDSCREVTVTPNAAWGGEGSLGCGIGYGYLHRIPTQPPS

Binder	pKd
ETSLVKGIDI [DENND5A, Q6IQ26]	below the threshold
NASRTRITFV [MCM7, P33993]	4.86

Each binder was assayed against GRASP, Q7Z6J2 (assay: holdup assay). Conditions: plain residues with an end cap or a label only (N-terminal biotin on a linker: ado-ado).
Design: key: below the threshold = too weak to quantify, mostly under pKd 3.1 to 4

Chain of GRASP, Q7Z6J2 (Q7Z6J2 96-193): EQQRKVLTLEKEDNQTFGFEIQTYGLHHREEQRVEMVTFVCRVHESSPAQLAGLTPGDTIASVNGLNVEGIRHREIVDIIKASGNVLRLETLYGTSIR

Binder	pKd
ETSLVKGIDI [DENND5A, Q6IQ26]	below the threshold
NASRTRITFV [MCM7, P33993]	4.53

What follows are binders tested against GRIP2_4, Q9C0E4 (assay: holdup assay). Conditions: plain residues with an end cap or a label only (N-terminal biotin on a linker: ado-ado).
Design: key: below the threshold = too weak to quantify, mostly under pKd 3.1 to 4

Chain of GRIP2_4, Q9C0E4 (Q9C0E4 446-548): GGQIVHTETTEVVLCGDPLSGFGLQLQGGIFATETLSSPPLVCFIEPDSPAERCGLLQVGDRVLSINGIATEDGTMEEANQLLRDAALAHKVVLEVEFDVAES

Binder	pKd
ETSLVKGIDI [DENND5A, Q6IQ26]	below the threshold
NASRTRITFV [MCM7, P33993]	below the threshold

These binders were tested against GRIP2_7, Q9C0E4 (assay: holdup assay). Conditions: plain residues with an end cap or a label only (N-terminal biotin on a linker: ado-ado).
Design: key: below the threshold = too weak to quantify, mostly under pKd 3.1 to 4

Chain of GRIP2_7, Q9C0E4 (Q9C0E4 934-1023): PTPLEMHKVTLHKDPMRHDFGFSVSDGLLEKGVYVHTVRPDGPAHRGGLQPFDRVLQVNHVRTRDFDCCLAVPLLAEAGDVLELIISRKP

Binder	pKd
ETSLVKGIDI [DENND5A, Q6IQ26]	3.58
NASRTRITFV [MCM7, P33993]	4.27

Each binder was assayed against HTRA1, Q92743 (assay: holdup assay). Conditions: plain residues with an end cap or a label only (N-terminal biotin on a linker: ado-ado).
Design: key: below the threshold = too weak to quantify, mostly under pKd 3.1 to 4

Chain of HTRA1, Q92743 (Q92743 360-477): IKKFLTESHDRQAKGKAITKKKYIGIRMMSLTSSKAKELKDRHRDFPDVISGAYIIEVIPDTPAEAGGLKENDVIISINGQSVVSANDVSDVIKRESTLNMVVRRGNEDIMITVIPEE

Binder	pKd
ETSLVKGIDI [DENND5A, Q6IQ26]	3.6
NASRTRITFV [MCM7, P33993]	4.99

What follows are binders tested against T3, HTRA4, P83105 (assay: holdup assay). Conditions: plain residues with an end cap or a label only (N-terminal biotin on a linker: ado-ado).
Design: key: below the threshold = too weak to quantify, mostly under pKd 3.1 to 4

Binder	pKd
ETSLVKGIDI [DENND5A, Q6IQ26]	4.13
NASRTRITFV [MCM7, P33993]	4.59

Each binder was assayed against IL16_3, Q14005 (assay: holdup assay). Conditions: plain residues with an end cap or a label only (N-terminal biotin on a linker: ado-ado).
Design: key: below the threshold = too weak to quantify, mostly under pKd 3.1 to 4

Chain of IL16_3, Q14005 (Q14005 1107-1207): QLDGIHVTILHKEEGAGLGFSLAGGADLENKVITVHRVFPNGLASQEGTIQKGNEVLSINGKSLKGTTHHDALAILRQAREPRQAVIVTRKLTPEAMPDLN

Binder	pKd
ETSLVKGIDI [DENND5A, Q6IQ26]	below the threshold
NASRTRITFV [MCM7, P33993]	below the threshold

Each binder was assayed against IL16_4, Q14005 (assay: holdup assay). Conditions: plain residues with an end cap or a label only (N-terminal biotin on a linker: ado-ado).
Design: key: below the threshold = too weak to quantify, mostly under pKd 3.1 to 4

Chain of IL16_4, Q14005 (Q14005 1229-1329): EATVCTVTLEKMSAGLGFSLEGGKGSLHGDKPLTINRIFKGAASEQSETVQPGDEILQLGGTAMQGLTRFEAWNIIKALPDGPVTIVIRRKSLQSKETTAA

Binder	pKd
ETSLVKGIDI [DENND5A, Q6IQ26]	below the threshold
NASRTRITFV [MCM7, P33993]	3.67

These binders were tested against Inadl_4, Q8NI35 (assay: holdup assay). Conditions: plain residues with an end cap or a label only (N-terminal biotin on a linker: ado-ado).
Design: key: below the threshold = too weak to quantify, mostly under pKd 3.1 to 4

Chain of Inadl_4, Q8NI35 (Q8NI35 547-651): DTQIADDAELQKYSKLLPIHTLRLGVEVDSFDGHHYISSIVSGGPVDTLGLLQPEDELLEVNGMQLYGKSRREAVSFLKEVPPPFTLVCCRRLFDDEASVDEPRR

Binder	pKd
ETSLVKGIDI [DENND5A, Q6IQ26]	below the threshold
NASRTRITFV [MCM7, P33993]	below the threshold

What follows are binders tested against Inadl_5, Q8NI35 (assay: holdup assay). Conditions: plain residues with an end cap or a label only (N-terminal biotin on a linker: ado-ado).
Design: key: below the threshold = too weak to quantify, mostly under pKd 3.1 to 4

Chain of Inadl_5, Q8NI35 (Q8NI35 673-780): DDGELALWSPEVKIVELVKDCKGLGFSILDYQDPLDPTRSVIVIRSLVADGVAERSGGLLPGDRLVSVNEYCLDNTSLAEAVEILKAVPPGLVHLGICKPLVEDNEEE

Binder	pKd
ETSLVKGIDI [DENND5A, Q6IQ26]	below the threshold
NASRTRITFV [MCM7, P33993]	4.34

What follows are binders tested against Inadl_8, Q8NI35 (assay: holdup assay). Conditions: plain residues with an end cap or a label only (N-terminal biotin on a linker: ado-ado).
Design: key: below the threshold = too weak to quantify, mostly under pKd 3.1 to 4

Chain of Inadl_8, Q8NI35 (Q8NI35 1425-1530): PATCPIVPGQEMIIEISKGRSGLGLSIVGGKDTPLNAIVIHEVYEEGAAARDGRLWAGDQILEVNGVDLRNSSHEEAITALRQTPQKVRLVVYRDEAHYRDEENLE

Binder	pKd
ETSLVKGIDI [DENND5A, Q6IQ26]	below the threshold
NASRTRITFV [MCM7, P33993]	5.05

Each binder was assayed against LAP2, Q96RT1 (assay: holdup assay). Conditions: plain residues with an end cap or a label only (N-terminal biotin on a linker: ado-ado).
Design: key: below the threshold = too weak to quantify, mostly under pKd 3.1 to 4

Chain of LAP2, Q96RT1 (Q96RT1 other isoform, or with tags, fused parts or gaps): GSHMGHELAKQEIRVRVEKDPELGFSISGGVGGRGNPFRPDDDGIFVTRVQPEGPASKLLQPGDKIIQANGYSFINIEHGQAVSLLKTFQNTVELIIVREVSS

Binder	pKd
ETSLVKGIDI [DENND5A, Q6IQ26]	3.57
NASRTRITFV [MCM7, P33993]	3.49

These binders were tested against LDB3, O75112 (assay: holdup assay). Conditions: plain residues with an end cap or a label only (N-terminal biotin on a linker: ado-ado).
Design: key: below the threshold = too weak to quantify, mostly under pKd 3.1 to 4

Chain of LDB3, O75112 (O75112 1-94): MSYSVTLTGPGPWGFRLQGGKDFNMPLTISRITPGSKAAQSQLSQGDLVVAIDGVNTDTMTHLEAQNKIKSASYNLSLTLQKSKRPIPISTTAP

Binder	pKd
ETSLVKGIDI [DENND5A, Q6IQ26]	3.51
NASRTRITFV [MCM7, P33993]	below the threshold

The binders below were run against T4, LIN7C, Q9NUP9 (assay: holdup assay). Conditions: plain residues with an end cap or a label only (N-terminal biotin on a linker: ado-ado).
Design: key: below the threshold = too weak to quantify, mostly under pKd 3.1 to 4

Binder	pKd
ETSLVKGIDI [DENND5A, Q6IQ26]	below the threshold
NASRTRITFV [MCM7, P33993]	below the threshold

What follows are binders tested against LNX1_1, Q8TBB1 (assay: holdup assay). Conditions: plain residues with an end cap or a label only (N-terminal biotin on a linker: ado-ado).
Design: key: below the threshold = too weak to quantify, mostly under pKd 3.1 to 4

Chain of LNX1_1, Q8TBB1 (Q8TBB1 261-371): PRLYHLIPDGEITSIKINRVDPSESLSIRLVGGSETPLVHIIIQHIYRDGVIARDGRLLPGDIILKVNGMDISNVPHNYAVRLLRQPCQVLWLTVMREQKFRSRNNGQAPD

Binder	pKd
ETSLVKGIDI [DENND5A, Q6IQ26]	3.79
NASRTRITFV [MCM7, P33993]	4.3

What follows are binders tested against T5, LNX2_2, Q8N448 (assay: holdup assay). Conditions: plain residues with an end cap or a label only (N-terminal biotin on a linker: ado-ado).
Design: key: below the threshold = too weak to quantify, mostly under pKd 3.1 to 4

Binder	pKd
ETSLVKGIDI [DENND5A, Q6IQ26]	4.13
NASRTRITFV [MCM7, P33993]	5.43

Each binder was assayed against MAGI1_1, Q96QZ7 (assay: holdup assay). Conditions: plain residues with an end cap or a label only (N-terminal biotin on a linker: ado-ado).
Design: key: below the threshold = too weak to quantify, mostly under pKd 3.1 to 4

Chain of MAGI1_1, Q96QZ7 (Q96QZ7 1-106): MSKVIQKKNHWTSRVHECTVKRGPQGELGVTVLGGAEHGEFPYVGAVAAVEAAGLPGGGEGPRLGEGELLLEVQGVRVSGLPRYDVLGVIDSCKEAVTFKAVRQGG

Binder	pKd
ETSLVKGIDI [DENND5A, Q6IQ26]	3.55
NASRTRITFV [MCM7, P33993]	below the threshold

These binders were tested against MAGI2_2, Q86UL8 (assay: holdup assay). Conditions: plain residues with an end cap or a label only (N-terminal biotin on a linker: ado-ado).
Design: key: below the threshold = too weak to quantify, mostly under pKd 3.1 to 4

Chain of MAGI2_2, Q86UL8 (Q86UL8 410-522): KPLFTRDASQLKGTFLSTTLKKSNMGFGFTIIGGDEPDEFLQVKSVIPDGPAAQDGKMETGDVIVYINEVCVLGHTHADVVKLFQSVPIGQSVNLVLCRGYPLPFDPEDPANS

Binder	pKd
ETSLVKGIDI [DENND5A, Q6IQ26]	3.48
NASRTRITFV [MCM7, P33993]	5.31

These binders were tested against MAGI2_3, Q86UL8 (assay: holdup assay). Conditions: plain residues with an end cap or a label only (N-terminal biotin on a linker: ado-ado).
Design: key: below the threshold = too weak to quantify, mostly under pKd 3.1 to 4

Chain of MAGI2_3, Q86UL8 (Q86UL8 600-682): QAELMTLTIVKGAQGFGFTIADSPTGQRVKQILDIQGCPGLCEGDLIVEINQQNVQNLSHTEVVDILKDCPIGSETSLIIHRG

Binder	pKd
ETSLVKGIDI [DENND5A, Q6IQ26]	below the threshold
NASRTRITFV [MCM7, P33993]	4.99

What follows are binders tested against MAGI2_5, Q86UL8 (assay: holdup assay). Conditions: plain residues with an end cap or a label only (N-terminal biotin on a linker: ado-ado).
Design: key: below the threshold = too weak to quantify, mostly under pKd 3.1 to 4

Chain of MAGI2_5, Q86UL8 (Q86UL8 915-1017): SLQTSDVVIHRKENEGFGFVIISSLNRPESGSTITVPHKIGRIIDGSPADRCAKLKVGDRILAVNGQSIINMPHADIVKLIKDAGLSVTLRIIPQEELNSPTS

Binder	pKd
ETSLVKGIDI [DENND5A, Q6IQ26]	below the threshold
NASRTRITFV [MCM7, P33993]	3.75

The binders below were run against PDLIM1, O00151 (assay: holdup assay). Conditions: plain residues with an end cap or a label only (N-terminal biotin on a linker: ado-ado).
Design: key: below the threshold = too weak to quantify, mostly under pKd 3.1 to 4

Chain of PDLIM1, O00151 (O00151 1-87): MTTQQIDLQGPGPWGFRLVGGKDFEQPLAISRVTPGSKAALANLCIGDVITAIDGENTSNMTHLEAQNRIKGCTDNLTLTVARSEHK

Binder	pKd
ETSLVKGIDI [DENND5A, Q6IQ26]	below the threshold
NASRTRITFV [MCM7, P33993]	below the threshold

What follows are binders tested against T6, PDZRN3_1, Q9UPQ7 (assay: holdup assay). Conditions: plain residues with an end cap or a label only (N-terminal biotin on a linker: ado-ado).
Design: key: below the threshold = too weak to quantify, mostly under pKd 3.1 to 4

Binder	pKd
ETSLVKGIDI [DENND5A, Q6IQ26]	below the threshold
NASRTRITFV [MCM7, P33993]	3.89

The binders below were run against TJP1_2, Q07157 (assay: holdup assay). Conditions: plain residues with an end cap or a label only (N-terminal biotin on a linker: ado-ado).
Design: key: below the threshold = too weak to quantify, mostly under pKd 3.1 to 4

Chain of TJP1_2, Q07157 (Q07157 181-274): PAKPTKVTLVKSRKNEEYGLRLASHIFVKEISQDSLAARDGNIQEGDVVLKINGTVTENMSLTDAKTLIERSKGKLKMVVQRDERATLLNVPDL

Binder	pKd
ETSLVKGIDI [DENND5A, Q6IQ26]	4.03
NASRTRITFV [MCM7, P33993]	3.62
